The supplement of paper PMC10724198
± gives the standard deviation of the averaged measurements.

Test system: Saccharomyces cerevisiae
Experiment: protein stability index of tFT-peptide fusion (C-terminal peptide) (PSI (0-1 scale)); higher = more stable (slower turnover)
Settings: temperature: 30 C
Method: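 MPS profiling in S. cerevisiae of the yeast C-terminome library: the last 12 aa of each annotated ORF are fused to the C-terminus of a sfGFP-mCherry timer, after a GGGS linker. Cells are FACS-sorted into 8 mCherry/sfGFP bins and deep-sequenced. PSI runs from 0 (unstable) to 1 (stable); wild type and das1Δ backgrounds, two technical replicates each.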

[1] = genetic background: das1 deletion

RIEQNRPDDGVY [FMP16 C-terminal 12 aa]
protein stability index [1]: 0.682 ± 0.068 | protein stability index (genetic background: wild type): 0.65 ± 0.017

RIYHVYGRFLIH [NCA2 C-terminal 12 aa]
protein stability index [1]: 0.671 ± 0.027 | protein stability index (genetic background: wild type): 0.404 ± 0.027

RKCRVYVIQDAF [YER084W-A C-terminal 12 aa]
protein stability index [1]: 0.6849 ± 0.0056 | protein stability index (genetic background: wild type): 0.67829 ± 0.00013

RKFHVVDTSLFA [MOG1 C-terminal 12 aa]
protein stability index [1]: 0.688 ± 0.01 | protein stability index (genetic background: wild type): 0.688 ± 0.05

RKSKKDTDSDSD [BMT5 C-terminal 12 aa]
protein stability index [1]: 0.7 ± 0.023 | protein stability index (genetic background: wild type): 0.695 ± 0.055

RKTIRRDLASLV [TMA108 C-terminal 12 aa]
protein stability index [1]: 0.691 ± 0.01 | protein stability index (genetic background: wild type): 0.571 ± 0.031

RLEKEAKIKQEE [CDC11 C-terminal 12 aa]
protein stability index [1]: 0.6967 ± 0.0039 | protein stability index (genetic background: wild type): 0.678 ± 0.032

RLGLDWQPDSVS [MTH1 C-terminal 12 aa]
protein stability index [1]: 0.695 ± 0.01 | protein stability index (genetic background: wild type): 0.686 ± 0.039

RLLGPCFKTGGI [YLR154W-B C-terminal 12 aa]
protein stability index [1]: 0.696 ± 0.0085 | protein stability index (genetic background: wild type): 0.675 ± 0.043

RLNKLEAVLQTL [PML39 C-terminal 12 aa]
protein stability index [1]: 0.685 ± 0.033 | protein stability index (genetic background: wild type): 0.72 ± 0.011

RLSMLRPPSSSS [RSC2 C-terminal 12 aa]
protein stability index [1]: 0.7185 ± 0.0066 | protein stability index (genetic background: wild type): 0.7059 ± 0.0021

RMHRRLPFPTLN [YJR142W C-terminal 12 aa]
protein stability index [1]: 0.699 ± 0.025 | protein stability index (genetic background: wild type): 0.548 ± 0.013

RNNEHSHKKYNQ [YER090C-A C-terminal 12 aa]
protein stability index [1]: 0.711 ± 0.0081 | protein stability index (genetic background: wild type): 0.729 ± 0.092

RRAAIHPYFQES [CDC28 C-terminal 12 aa]
protein stability index [1]: 0.729 ± 0.013 | protein stability index (genetic background: wild type): 0.687 ± 0.015

RRHFSERRLENK [YPR074W-A C-terminal 12 aa]
protein stability index [1]: 0.684 ± 0.022 | protein stability index (genetic background: wild type): 0.73 ± 0.025

RRPSSTSQYLIR [CDC20 C-terminal 12 aa]
protein stability index [1]: 0.692 ± 0.01 | protein stability index (genetic background: wild type): 0.679 ± 0.038

RSNEEMYSWSRN [SPO74 C-terminal 12 aa]
protein stability index [1]: 0.698 ± 0.039 | protein stability index (genetic background: wild type): 0.692 ± 0.0082

RTQGEGQGSMFR [TAF11 C-terminal 12 aa]
protein stability index [1]: 0.7233 ± 0.0027 | protein stability index (genetic background: wild type): 0.6719 ± 0.0047

RTRPPTAVAHIA [DUG3 C-terminal 12 aa]
protein stability index [1]: 0.6938 ± 0.0057 | protein stability index (genetic background: wild type): 0.337 ± 0.0086

RTTFRTLSSYGK [YHL041W C-terminal 12 aa]
protein stability index [1]: 0.713 ± 0.0099 | protein stability index (genetic background: wild type): 0.648 ± 0.037

RTTGHNLKQDFN [BUD4 C-terminal 12 aa]
protein stability index [1]: 0.696 ± 0.022 | protein stability index (genetic background: wild type): 0.653 ± 0.017

RVVDLVEHVAKA [TDH2 C-terminal 12 aa]
protein stability index [1]: 0.705 ± 0.026 | protein stability index (genetic background: wild type): 0.6748 ± 0.0044

RVYTEQNVPVVS [YNL194C C-terminal 12 aa]
protein stability index [1]: 0.6679 ± 0.0046 | protein stability index (genetic background: wild type): 0.684 ± 0.039

RWELVRESWREL [HSV2 C-terminal 12 aa]
protein stability index [1]: 0.703 ± 0.03 | protein stability index (genetic background: wild type): 0.786 ± 0.086

RYENFINMARHK [YOR097C C-terminal 12 aa]
protein stability index [1]: 0.816 ± 0.054

SAIADDDEEHKE [LHP1 C-terminal 12 aa]
protein stability index [1]: 0.7103 ± 0.0044 | protein stability index (genetic background: wild type): 0.678 ± 0.051

SAIEEGISLNKG [TEL2 C-terminal 12 aa]
protein stability index [1]: 0.7058 ± 0.0048 | protein stability index (genetic background: wild type): 0.701 ± 0.012

SAQRDRRYRKRN [RPS17B C-terminal 12 aa]
protein stability index [1]: 0.721 ± 0.049 | protein stability index (genetic background: wild type): 0.649 ± 0.018

SATFTSDHIGHI [RIM21 C-terminal 12 aa]
protein stability index [1]: 0.7167 ± 0.0052 | protein stability index (genetic background: wild type): 0.685 ± 0.042

SDEFVDASEYKD [UTP9 C-terminal 12 aa]
protein stability index [1]: 0.7 ± 0.044 | protein stability index (genetic background: wild type): 0.6722 ± 0.0063

SDELSRNFDSQG [VPS3 C-terminal 12 aa]
protein stability index [1]: 0.705 ± 0.017 | protein stability index (genetic background: wild type): 0.726 ± 0.015

SDVAKQLAALGY [RPL16A C-terminal 12 aa]
protein stability index [1]: 0.698 ± 0.024 | protein stability index (genetic background: wild type): 0.677 ± 0.012

SETIEELLKEVE [HYR1 C-terminal 12 aa]
protein stability index [1]: 0.708 ± 0.0081 | protein stability index (genetic background: wild type): 0.7 ± 0.015

SFDVLAKVPNAA [RPA190 C-terminal 12 aa]
protein stability index [1]: 0.692 ± 0.011 | protein stability index (genetic background: wild type): 0.655 ± 0.011

SFNEVVKEVQAL [NHP2 C-terminal 12 aa]
protein stability index [1]: 0.687 ± 0.017 | protein stability index (genetic background: wild type): 0.692 ± 0.019

SFRLTKRQTDND [POS5 C-terminal 12 aa]
protein stability index [1]: 0.7021 ± 0.0053 | protein stability index (genetic background: wild type): 0.709 ± 0.033

SFSYLWRNFGFI [PDR18 C-terminal 12 aa]
protein stability index [1]: 0.7475 ± 0.0067 | protein stability index (genetic background: wild type): 0.716 ± 0.027

SGAGARGSSAAA [LYS2 C-terminal 12 aa]
protein stability index [1]: 0.702 ± 0.011 | protein stability index (genetic background: wild type): 0.676 ± 0.032

SGPSAMTKFGPR [ARP2 C-terminal 12 aa]
protein stability index [1]: 0.69 ± 0.032 | protein stability index (genetic background: wild type): 0.6842 ± 0.0042

SIDQFRGKLNSI [URA1 C-terminal 12 aa]
protein stability index [1]: 0.701 ± 0.015 | protein stability index (genetic background: wild type): 0.688 ± 0.013

SIFIASLLLAIV [FLO10 C-terminal 12 aa]
protein stability index [1]: 0.226 ± 0.0053 | protein stability index (genetic background: wild type): 0.237 ± 0.0032
